The values below come from patent publication US20150344570A1 (published 2015).

T1: FcγRIIb extracellular domain with C-terminal His tag (human, UniProt P31994 43-217)
T1 construct: extracellular domain; Soluble receptor expressed in FreeStyle293 cells, used as analyte in Biacore; also called FcgRIIb; 2b; not shown: His tag attached to the C terminus
T1 sequence (looked up): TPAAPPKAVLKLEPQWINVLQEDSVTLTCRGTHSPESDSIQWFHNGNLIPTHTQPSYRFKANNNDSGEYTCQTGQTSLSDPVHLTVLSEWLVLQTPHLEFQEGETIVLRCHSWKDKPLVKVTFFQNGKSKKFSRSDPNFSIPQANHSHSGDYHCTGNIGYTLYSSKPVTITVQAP

T2: FcgRIIa R (FcγRIIa type R) extracellular domain with C-terminal His tag (human, UniProt P12318 34-217)
T2 construct: extracellular domain; also called FcγRIIa R; not shown: His tag attached to the C terminus
T2 sequence (looked up): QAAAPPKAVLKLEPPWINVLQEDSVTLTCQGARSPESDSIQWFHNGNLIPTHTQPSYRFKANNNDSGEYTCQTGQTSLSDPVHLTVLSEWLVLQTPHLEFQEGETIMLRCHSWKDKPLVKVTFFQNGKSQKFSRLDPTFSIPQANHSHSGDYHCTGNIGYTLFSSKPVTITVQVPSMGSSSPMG

T3: FcgRIIa H (FcγRIIa type H) extracellular domain with C-terminal His tag (human, UniProt P12318 34-217)
T3 construct: extracellular domain; also called FcγRIIa H; not shown: His tag attached to the C terminus
T3 sequence (looked up): T2 sequence (looked up) with R134H

T4: FcgRIIb (FcγRIIb) extracellular domain with C-terminal His tag (human, UniProt P31994 43-217)
T4 construct: extracellular domain; not shown: His tag attached to the C terminus
T4 sequence (looked up): T1 sequence (looked up)

B1: GpH7-A5/GpH7-B3 variant H268_20W/GpL16-k0 (antibody, human IgG1, kappa)
heavy 1: not shown
heavy 2: not shown
light: DIVMTQSPLSLPVTPGEPASISCQASESLVHSNRNTYLHWYLQKPGQSPQLLIYKVSNRFSGVPDRFSGSGSGTDFTLKISRVEAEDVGVYYCSQNTHVPPTFGQGTKVEIERTVAAPSVFIFPPSDEQLKSGTASVVCLLNNFYPREAKVQWKVDNALQSGNSQESVTEQDSKDSTYSLSSTLTLSKADYEKHKVYACEVTHQGLSSPVTKSFNRGEC
notes: Heterodimerized antibody (He Ab) with the mutation in only one H chain; also called He Ab H268W
B2: GpH7-A5/GpH7-B3 variant H268_05P/GpL16-k0 (antibody, human IgG1, kappa)
heavy 1: not shown
heavy 2: not shown
light: B1 light
notes: Heterodimerized antibody (He Ab) with the mutation in only one H chain; also called He Ab H268P
B3: GpH7-A5/GpH7-B3 variant S267_14T/GpL16-k0 (antibody, human IgG1, kappa)
heavy 1: not shown
heavy 2: not shown
light: B1 light
notes: Heterodimerized antibody (He Ab) with the mutation in only one H chain; also called He Ab S267T
B4: GpH7-A5/GpH7-B3 variant S267_10E/GpL16-k0 (antibody, human IgG1, kappa)
heavy 1: not shown
heavy 2: not shown
light: B1 light
notes: Heterodimerized antibody (He Ab) with the mutation in only one H chain; also called He Ab S267E
B5: GpH7-A5/GpH7-B3 variant S267_15Y/GpL16-k0 (antibody, human IgG1, kappa)
heavy 1: not shown
heavy 2: not shown
light: B1 light
notes: Heterodimerized antibody (He Ab) with the mutation in only one H chain; also called He Ab S267Y
B6: GpH7-A5/GpH7-B3 variant H268_01G/GpL16-k0 (antibody, human IgG1, kappa)
heavy 1: not shown
heavy 2: not shown
light: B1 light
notes: Heterodimerized antibody (He Ab) with the mutation in only one H chain; also called He Ab H268G
B7: H240-Kn061/H240-Hl071/L73-k0 variant with Y235V in H240-Kn061 (antibody, human IgG1, kappa)
heavy 1: QDQLVQSGAEVKKPGASVKVSCKASGFNIKDTYIQWVRQAPGQGLEWMGRIDPLRKQTKYREKFEGRVTITADTSTNTAYMELSSLRSEDTAVYYCVRSGREFDYWGQGTLVTVSSASTKGPSVFPLAPSSKSTSGGTAALGCLVKDYFPEPVTVSWNSGALTSGVHTFPAVLQSSGLYSLSSVVTVPSSSLGTQTYICNVNHKPSNTKVDKKVEPKSCDKTHTCPPCPAPEYVWGPSVFLFPPKPKDTLMISRTPEVTCVVVDVSDEDPEVKFNWYVDGVEVHNAKTKPREEQYNATYRVVSVLTVLHQDWLNGKEYKCKVSNKALPAPIEKTISKAKGQPREPQVCTLPPSRDELTKNQVSLWCLVKGFYPSDIAVEWESNGQPENNYKTTPPVLDSDGSFFLYSKLTVDKSRWQQGNVFSCSVMHEALHNHYTQKSLSLSP
heavy 2: QDQLVQSGAEVKKPGASVKVSCKASGFNIKDTYIQWVRQAPGQGLEWMGRIDPLRKQTKYREKFEGRVTITADTSTNTAYMELSSLRSEDTAVYYCVRSGREFDYWGQGTLVTVSSASTKGPSVFPLAPSSKSTSGGTAALGCLVKDYFPEPVTVSWNSGALTSGVHTFPAVLQSSGLYSLSSVVTVPSSSLGTQTYICNVNHKPSNTKVDKKVEPKSCDKTHTCPPCPAPELLGGPSVFLFPPKPKDTLMISRTPEVTCVVVDVSHEDPEVKFNWYVDGVEVHNAKTKPREEQYNSTYRVVSVLTVLHQDWLNGKEYKCKVSNDALPMPIEETISKAKGQPREPQVYTLPPSRCELTKNQVSLSCAVKGFYPSDIAVEWESNGQPENNYKTTPPVLDSDGSFFLVSKLTVDKSRWQQGNVFSCSVMHEALHNHYTQKSLSLSP
light: DIQMTQSPSSLSASVGDRVTITCRASQDIHKYIAWYQQKPGQAPRLLIQYTSTLQPGVPSRFSGSGSGTDYTFTISSLQPEDIATYYCLQYEQLRTFGGGTKVEIKRTVAAPSVFIFPPSDEQLKSGTASVVCLLNNFYPREAKVQWKVDNALQSGNSQESVTEQDSKDSTYSLSSTLTLSKADYEKHKVYACEVTHQGLSSPVTKSFNRGEC
notes: anti-epiregulin heterodimerized IgG1; also called H240-Kn061 Y235V

Residue numbers refer to the chain shown, from its start. Numbers in names are those of the source.

T5 sequence (P08637 17-208): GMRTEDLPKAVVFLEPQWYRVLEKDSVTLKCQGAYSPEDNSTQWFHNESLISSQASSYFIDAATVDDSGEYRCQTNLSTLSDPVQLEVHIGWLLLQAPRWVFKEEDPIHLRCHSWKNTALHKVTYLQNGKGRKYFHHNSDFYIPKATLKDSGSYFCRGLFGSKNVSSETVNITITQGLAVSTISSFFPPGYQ

The first test addresses T5, FcγRIIIa extracellular domain with C-terminal His tag (human, UniProt P08637 17-208).
T5 construct: extracellular domain; also called FcgRIIIa; 3a; not shown: His tag attached to the C terminus
Description: SPR (Biacore); He/Con_3a (FcγRIIIa) divided by He/Con_2b (FcγRIIb). (In general: SPR reads the build-up and loss of mass on a sensor chip optically.)
For the molecule B1, the “He_3a/2b (IIIa/IIb)” value was found to be 0.74 ratio.

B2: the “He_3a/2b (IIIa/IIb)” value was 0.66 ratio.

In the case of B3, the “He_3a/2b (IIIa/IIb)” value was 0.44 ratio.

Turning to B4, the “He_3a/2b (IIIa/IIb)” value stood at 0.24 ratio.

On to B5, for which the “He_3a/2b (IIIa/IIb)” value is 0.31 ratio.

B6: the “He_3a/2b (IIIa/IIb)” value was 0.67 ratio.

In the next test the target is T1, FcγRIIb extracellular domain with …. Description: SPR (Biacore T100), antibody captured on antigen peptide chip, FcγR as analyte. The method, then:
(§1) Analysis of interaction between objective antibody and the FcγR was carried out using Biacore T100 (GE Healthcare). HBS-EP+ (GE Healthcare) was used as the running buffer, and the measurement temperature was set to 25° C. Chips produced by immobilizing the antigen peptide by the amine coupling method to a Series S Sencor Chip CM5 (GE Healthcare), or alternatively, chips produced by allowing preliminarily biotinylated antigen peptides to interact with and immobilize onto a Series S Sensor Chip SA (certified) (GE Healthcare) were used. Antibodies of interest were captured onto an antigen peptide-immobilized chip, and allowed to interact to each FcγR diluted with running buffer. To regenerate and repeatedly use the chip, the antibodies captured on the chip were washed off by reacting 10 mM glycine-HCl, pH 1.5.
On to B1, for which the He/Con_2b was 111 relative binding, GpH7-A5/GpH7-B3/GpL16-k0 = 100.

Consider B2, for which the He/Con_2b is 116 relative binding, GpH7-A5/GpH7-B3/GpL16-k0 = 100.

On to B3, for which the He/Con_2b was 104 relative binding, GpH7-A5/GpH7-B3/GpL16-k0 = 100.

As to B4, the He/Con_2b is 379 relative binding, GpH7-A5/GpH7-B3/GpL16-k0 = 100.

B5: the He/Con_2b was 37.9 relative binding, GpH7-A5/GpH7-B3/GpL16-k0 = 100.

Take B6: the He/Con_2b is 144 relative binding, GpH7-A5/GpH7-B3/GpL16-k0 = 100.

A further test concerns the target T5, FcγRIIIa extracellular domain with …. The description is as above. The method, then: as §1
For the molecule B1, the He/Con_3a is 82.8 relative binding, GpH7-A5/GpH7-B3/GpL16-k0 = 100.

With B2, the He/Con_3a was 76.4 relative binding, GpH7-A5/GpH7-B3/GpL16-k0 = 100.

Take B3: the He/Con_3a was 45.6 relative binding, GpH7-A5/GpH7-B3/GpL16-k0 = 100.

Take B4: the He/Con_3a is 91.9 relative binding, GpH7-A5/GpH7-B3/GpL16-k0 = 100.

Turning to B5, the He/Con_3a is 11.8 relative binding, GpH7-A5/GpH7-B3/GpL16-k0 = 100.

Turning to B6, the He/Con_3a was 96.7 relative binding, GpH7-A5/GpH7-B3/GpL16-k0 = 100.

In the next test the target is T2, FcgRIIa R (FcγRIIa type R) …. Put plainly: SPR (Biacore); KD of H240-Kn061/H240-Hl071/L73-k0 divided by KD of the variant. The procedure: (§2) The antibodies were assessed for the binding to each FcgR. […] The resultant value was defined as relative KD, and used as an assessment indicator.
(§3) Analysis of interaction between objective antibody and the FcγR was carried out using Biacore T100 (GE Healthcare), Biacore T200, Biacore A100, and Biacore 4000. HBS-EP+ (GE Healthcare) was used as the running buffer, and the measurement temperature was set to 25° C. Chips produced by immobilizing the antigen peptide by the amine coupling method to a Series S sensor Chip CM5 (GE Healthcare), chips produced by allowing preliminarily biotinylated antigen peptides to interact with and immobilize onto a Series S Sensor Chip SA (certified) (GE Healthcare), chips produced by immobilizing Protein L (ACTIGEN, BioVision) to Series S Sencor Chip CM5 (GE Healthcare), or chips produced by immobilizing Protein A/G (Thermo Scientific) to Series S Sencor Chip CM5 (GE Healthcare) were used. Antibodies of interest were captured onto these chips, and allowed to interact to each FcγR diluted with running buffer.
On to B7, for which the “relative KD” value is 0.5 ratio.

The next test concerns the target T3, FcgRIIa H (FcγRIIa type H) …. The description is as above. The procedure: as §2, §3
With B7, the “relative KD” value was found to be 0.4 ratio.

For a further test, the target named is T4, FcgRIIb (FcγRIIb) extracellular domain …. The description is as above. The procedure:
as §2, §3
In the case of B7, the “relative KD” value is 0.2 ratio.

The target of another test is T6, FcgRIIIa F (FcγRIIIa type F) extracellular domain with C-terminal His tag (human, UniProt P08637 17-208).
T6 construct: extracellular domain; also called FcγRIIIa F; 3aF; not shown: His tag attached to the C terminus
T6 sequence (P08637 17-208): as above
Described as above. The procedure:
as §2, §3
For B7, the “relative KD” value stood at 1.2 ratio.

The target in the next test is T7, FcgRIIIa V (FcγRIIIa type V) extracellular domain with C-terminal His tag (human, UniProt P08637 17-208).
T7 construct: extracellular domain; also called FcγRIIIa V; not shown: His tag attached to the C terminus
T7 sequence (P08637 17-208 F176V limits assumed): as the sequence (P08637 17-208) above, with F160V counted along it
The description is as above. The procedure: as §2, §3
Regarding B7, the “relative KD” value is 1.3 ratio.

For the next test, the target named is T4, FcgRIIb (FcγRIIb) extracellular domain …. Described as above. This is another data set of the same source.
In the case of B7, the “relative KD” value was found to be 0.2 ratio.

The next test has as its target T6, FcgRIIIa F (FcγRIIIa type F) …. The test is described as above. This is another data set of the same source.
As for B7, the “relative KD” value is 1.2 ratio.

In another test the target is T7, FcgRIIIa V (FcγRIIIa type V) …. The test is described as above. This is another data set of the same source.
In the case of B7, the “relative KD” value is 1.3 ratio.
